Measured values taken from paper PMC9320857, “Protocellular CRISPR/Cas‐Based Diffusive Communication Using Transcriptional RNA Signaling”.

Target: T7 RNA polymerase (UniProt P00573 1-883)
Test: confocal localization to immobilized DNA; 500 nM Cy5-T7 RNAP, 0.5 h, 37 C; target in proteinosomes; reaction buffer (composition not in the material; NEB buffer 3.1 mentioned), 37 C; DNA localization in 10 mM Tris pH 8.0, 12 mM Mg, 0.1% Tween 20
Conditions: protein: commercial; tags: Cy5 label; label: Cy3 5' on NTMG; biotin on TMG; NTMG 5' overhang 27 nt (incomplete T7 promoter)

Chain of T7 RNA polymerase (P00573 whole entry): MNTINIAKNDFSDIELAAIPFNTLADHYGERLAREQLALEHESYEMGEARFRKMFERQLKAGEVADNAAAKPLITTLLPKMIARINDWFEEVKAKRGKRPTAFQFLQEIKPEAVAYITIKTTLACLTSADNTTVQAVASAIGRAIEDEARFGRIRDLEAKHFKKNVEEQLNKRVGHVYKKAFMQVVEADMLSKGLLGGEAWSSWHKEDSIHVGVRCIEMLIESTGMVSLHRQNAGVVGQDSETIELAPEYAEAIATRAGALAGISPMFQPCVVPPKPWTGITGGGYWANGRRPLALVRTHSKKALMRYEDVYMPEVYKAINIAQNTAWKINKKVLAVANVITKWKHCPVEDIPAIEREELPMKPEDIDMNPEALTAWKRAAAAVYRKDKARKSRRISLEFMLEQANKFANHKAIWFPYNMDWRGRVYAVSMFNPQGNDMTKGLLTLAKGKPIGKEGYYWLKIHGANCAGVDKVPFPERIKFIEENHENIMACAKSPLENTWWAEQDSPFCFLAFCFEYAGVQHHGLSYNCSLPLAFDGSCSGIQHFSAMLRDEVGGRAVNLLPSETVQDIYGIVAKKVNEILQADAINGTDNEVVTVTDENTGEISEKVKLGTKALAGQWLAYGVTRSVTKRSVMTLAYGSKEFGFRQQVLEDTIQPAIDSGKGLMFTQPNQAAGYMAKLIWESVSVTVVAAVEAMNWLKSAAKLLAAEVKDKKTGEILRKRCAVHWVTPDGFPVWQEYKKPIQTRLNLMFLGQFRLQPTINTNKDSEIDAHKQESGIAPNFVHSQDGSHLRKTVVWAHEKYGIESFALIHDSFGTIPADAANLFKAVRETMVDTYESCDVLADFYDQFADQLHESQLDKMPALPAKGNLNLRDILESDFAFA

B1: MG genelet TMG/NTMG (dsDNA)
DNA 1: CATTAGTGTCGTTCGTTCACAGTAATACGACTCACTATAGGGATCCCGACTGGCGAGAGCCAGGTAACGAATGGATC
DNA 2: GATCCATTCGTTACCTGGCTCTCGCCAGTCGGGATCCCTATAGTGAGTCG
B1: binds.
